{"source": "paper PMC6234505", "biological_target": "GST-SHP2 PTP DAQA (substrate trapping mutant D425A/Q506A)", "test": "pull-down", "data": [{"substance": "YFP-GluN2B, tyrosine phosphorylated, in cell lysate (from UniProt Q00960 27-1482) (receptor)", "values": [{"measurement": "fold more pulled down than by GST-SHP2 WT", "result": 14, "unit": "fold"}]}]}
